According to publication PMC2914677, “Characterisation of recombinant pyranose oxidase from the cultivated mycorrhizal basidiomycete Lyophyllum shimeji (hon-shimeji)” (Microbial Cell Factories, 2010):

What was measured:
[1] = molecular target: T1, PcP2Ox (Phanerodontia chrysosporium, UniProt Q6QWR1); assay: absorbance at […] nm; format: biochemical; settings: apparent; electron acceptor, 100 mM D-glucose, oxygen removed with nitrogen, pH 6.5, 30°C, 50 mM potassium phosphate; used as PF6 salt
T1 construct: gene p2ox; C-terminal His6 tag kept, pET21-a(+), E. coli BL21(DE3), IMAC
T1 sequence (Q6QWR1 whole entry): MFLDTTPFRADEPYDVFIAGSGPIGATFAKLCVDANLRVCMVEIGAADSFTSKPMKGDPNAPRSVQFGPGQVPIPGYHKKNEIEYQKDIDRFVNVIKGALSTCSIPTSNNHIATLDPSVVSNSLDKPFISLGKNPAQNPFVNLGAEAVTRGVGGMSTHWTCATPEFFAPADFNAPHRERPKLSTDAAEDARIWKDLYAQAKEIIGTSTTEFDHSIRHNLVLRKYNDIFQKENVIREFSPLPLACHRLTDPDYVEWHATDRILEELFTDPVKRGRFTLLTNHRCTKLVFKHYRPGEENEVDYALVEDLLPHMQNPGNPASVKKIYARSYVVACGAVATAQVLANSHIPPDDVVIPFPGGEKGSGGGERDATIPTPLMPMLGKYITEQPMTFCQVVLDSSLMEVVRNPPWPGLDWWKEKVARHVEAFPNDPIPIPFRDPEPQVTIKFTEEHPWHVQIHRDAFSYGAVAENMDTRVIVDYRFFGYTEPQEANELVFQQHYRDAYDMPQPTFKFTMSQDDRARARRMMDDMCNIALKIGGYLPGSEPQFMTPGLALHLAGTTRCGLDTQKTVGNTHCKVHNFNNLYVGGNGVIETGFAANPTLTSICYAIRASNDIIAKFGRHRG

[2] = molecular target: T2, TmP2Ox (Trametes ochracea, UniProt Q7ZA32); assay: absorbance at […] nm; format: biochemical; settings: apparent; electron acceptor, 100 mM D-glucose, oxygen removed with nitrogen, pH 6.5, 30°C, 50 mM potassium phosphate; used as PF6 salt
T2 construct: gene p2o; C-terminal His6 tag kept, pET21-d(+), E. coli BL21(DE3), IMAC

[3] = molecular target: T3, LsP2Ox (Lyophyllum shimeji, UniProt Q75ZP8); assay: absorbance at […] nm; format: biochemical; settings: apparent; electron acceptor, 100 mM D-glucose, oxygen removed with nitrogen, pH 6.5, 30°C, 50 mM potassium phosphate; used as PF6 salt
T3 construct: gene p2ox; full-length cDNA (ORF 1857 bp, 619 residues), C-terminal His6 tag kept, pET21a(+), E. coli Rosetta 2; purified by AIEX and preparative native PAGE; subunit 68,488 Da

[4] = system: O=C1C(Cl)=CC(=Nc2ccc(O)cc2)C=C1Cl; assay: purified protein; settings: apparent, electron acceptor, 100 mM D-glucose, oxygen removed with nitrogen, pH 6.5, 30°C, 50 mM potassium phosphate
[5] = system: O=C1C=CC(=O)C=C1; assay: purified protein; settings: apparent, electron acceptor, 100 mM D-glucose, oxygen removed with nitrogen, pH 6.5, 30°C, 50 mM potassium phosphate
[6] = substrate: O=C1C=CC(=O)C=C1; assay: purified protein; format: biochemical, Lyophyllum shimeji; settings: apparent, electron acceptor, 100 mM D-glucose, oxygen removed with nitrogen, pH 6.5, 30°C, 50 mM potassium phosphate
[7] = substrate: O=C1C(Cl)=CC(=Nc2ccc(O)cc2)C=C1Cl; assay: purified protein; format: biochemical, Lyophyllum shimeji; settings: apparent, electron acceptor, 100 mM D-glucose, oxygen removed with nitrogen, pH 6.5, 30°C, 50 mM potassium phosphate

For `C1=CCC=C1.C1=CCC=C1.[Fe+3]` [ferrocenium ion], the Km [1] was 330 µM, the Km [2] was 507 µM and the Km [3] was 187 µM.

TmP2Ox (Trametes ochracea) showed a Km [4] of 413 µM, a kcat [4] of 42 s⁻¹ and a kcat/Km [4] of 102000 M⁻¹ s⁻¹. It also gave a Km [5] of 253 µM, a kcat [5] of 225 s⁻¹ and a kcat/Km [5] of 895000 M⁻¹ s⁻¹.

B1: LsP2Ox (Lyophyllum shimeji) (protein)
chain: MSLSTEQMLRDYPRSMQINGQIPKNAIHETYGNDGVDVFIAGSGPIGATYAKLCVEAGLRVVMVEIGAADSFYAVNAEEGTAVPYVPGYHKKNEIEFQKDIDRFVNVIKGALQQVSVPVRNQNVPTLDPGAWSAPPGSSAISNGKNPHQREFENLSAEAVTRGVGGMSTHWTCSTPRIHPPMESLPGIGRPKLSNDPAEDDKEWNELYSEAERLIGTSTKEFDESIRHTLVLRSLQDAYKDRQRIFRPLPLACHRLKNAPEYVEWHSAENLFHSIYNDDKQKKLFTLLTNHRCTRLALTGGYEKKIGAAEVRNLLATRNPSSQLDSYIMAKVYVLASGAIGNPQILYNSGFSGLQVTPRNDSLIPNLGRYITEQPMAFCQIVLRQEFVDSVRDDPYGLPWWKEAVAQHIAKNPTDALPIPFRDPEPQVTTPFTEEHPWHTQIHRDAFSYGAVGPEVDSRVIVDLRWFGATDPEANNLLVFQNDVQDGYSMPQPTFRYRPSTASNVRARKMMADMCEVASNLGGYLPTSPPQFMDPGLALHLAGTTRIGFDKATTVADNNSLVWDFANLYVAGNGTIRTGFGENPTLTSMCHAIKSARSIINTLKGGTDGKNTGEHRNL
notes: full-length cDNA (ORF 1857 bp, 619 residues), C-terminal His6 tag kept, pET21a(+), E. coli Rosetta 2; purified by AIEX and preparative native PAGE; subunit 68,488 Da
B1 was tested, and the Km [6] was 33 µM, the kcat [6] was 92.3 s⁻¹ and the kcat/Km [6] was 2.76e+06 M⁻¹ s⁻¹. It also gave a Km [7] of 187 µM, a kcat [7] of 67.3 s⁻¹ and a kcat/Km [7] of 361000 M⁻¹ s⁻¹.
